# Assay results: the DeepSol protein solubility set
# Assay: soluble on expression in E. coli; label from the status in PepcDB or PDB records
row,Sequence,soluble on expression in E. coli
1,MGSDKIHHHHHHMTWQVERIANEHLTLEVLPQIGASVLNLRAASGRPVLRPVNPAAVQTSSQCASFTLLPYSNRIRDARFSFQGREVLLRPTTKDGLAQHGDVRNRPWQVTRVADTHLRGDFDSRAFNDMNWPWAFTARVEYLLHGPHLDTSVTLTNVDTDEMPAGMGLHPYFTRRHGGRDPFLSFGAALTYDTDERQLPTGGPRTLHPEEDYQMPSSIGDRQLDRVYTAWDGRARLDWGERALTLTADAVYSHLVVFTAPDGSLALEPVTHATDAFNLAARGVSGTDMRTLLPGQSLAGTVRITLEGAW,not soluble
2,MSKTLKIAIDAGHGPQTPGKRCPDDSMREFHFNSVVARYVRDGLAQYEGVQTMFTHADDGSRDVPLQERTDRANAWGADVFVSIHANASGNGWSDARGIETYVYTTRPAQAVKLAEAVQRNLIKETGLKDRGVKAENFHVLRETKMTAILCECGFMTNREEAELLKSDAYRRKCAKAIVAGIAEVYDLTLKQQAHASEPTYSGKFKDVPDGHYAKGATERLAEKGIMNGIGNGLFGFGKPITREDAAVIVDRAITYLEQKISQK,not soluble
3,MSSHHHHHHSSGLVPRGSHMASMSDSEVNQEAKPEVKPEVKPETHINLKVSDGSSEIFFKIKKTTPLRRLMEAFAKRQGKEMDSLRFLYDGIRIQADQTPEDLDMEDNDIIEAHREQIGGSLMIIENSHVKKDDIWPSGGQMTVKDLTAKYTEGGNAILENISFSISPGQRVGLLGRTGSGKSTLLSAFLRLLNTEGEIQIDGVSWDSITLQQWRKAFGVIPQKVFIFSGTFRKNLDPYEQWSDQEIWKVADEVGLRSVIEQFPGKLDFVLVDGGCVLSHGHKQLMCLARSVLSKAKILLLDQPSAHLDPVTYQIIRRTLKQAFADCTVILCEHRIEAMLECQQFLVIEENKVRQYDSIQKLLNERSLFRQAISPSDRVKLFPHRNSSK,soluble
4,YDTVIRNRQTNDVNYLKRLAKKFGFSETQFMTTYQSSELAANLDEERQVVSRLKINQLPAYVVTYNEQSYVIKGVLKYKEWLDIIQQITN,not soluble
5,MADKENATKIEKMPNSETMKGISSEDVPFEEDIIRNPTSVNCWQRYIDHKLQNKSPAKQMFLIYERALAVFERSYKLWYHYLKYRESTIVNKCPTDNSWRALCDTYERCLMRLHKMPRIWICYCEVMIKRGLITETRRVFDRALRSLPVTQHMRIWTLYIGFLTSHDLPETTIRVYRRYLKMNPKAREDYVEYLIERDQIDEAAKELTTLVNQDQNVSEKGRTAHQLWTQLCDLISKNPVKIFSLNVDAIIRQGIYRYTDQVGFLWCSLADYYIRSAEFERARDVYEEAIAKVSTVRDFAQVYDAYAAFEEREVSIMMQEVEQSGDPEEEVDLEWMFQRYQHLMERKNELMNSVLLRQNPHNVGEWLNRVNIYEGNYNKQIETFKEAVKSVNPKIQVGKVRDLWIGLAKLYEDNGDLDAARKTFETAVISQFGGVSELANVWCAYAEMEMKHKRAKAALTVMQRACVVPKPGDYENMQSVQARVHRSPILWAMYADYEECCGTVESCRKVYDKMIELRVASPQMIMNYAMFLEENEYFELAFQAYEKGIALFKWPGVFDIWNTYLVKFIKRYGGKKLERARDLFEQCLENCPPTHAKYIFLLYAKLEEEHGLARHALSIYNRACSGVDRADMHSMYNIYIKKVQEMYGIAQCRPIFERAISELPEDKSRAMSLRYAQLETTVGEIDRARAIYAHAAEISDPKVHVKFWDTWKNFEVAHGNEATVRDMLRVRRSVEASYNVNVTLTSVQMRVDAERKAQETTTSSNPMDSLDQQQQQPSDGAGSITQVSMNKGNISFVRGAGKTVQQNTTENPDEIDLDEDDDDEEDDGGDADISVKVVPAQIFGNLKLAEEEEEA,soluble
6,ARRLYVGNIPFGITEEAMMDFFNAQMRLGGLTQAPGNPVLAVQINQDKNFAFLEFRSVDETTQAMAFDGIIFQGQSLKIRRPHDYQPLPG,soluble
7,MGSDKIHHHHHHMSKNDLADLLRVGPETTMGKFMRQYWLPAVLSHEVKADGDPVRLMLLGEKLIAFRDSSGRVGVLDHRCPHRCASLFVGRNEENGIRCVYHGWKFDVDGNCVDMPSVPARLDFKEKVHARAYKAVERNGLIWVYMGENQNNPPPLPAIEANMIPGSKIWCLQRQCNWLQALEGDIDTSHVGFLHVGALQPEDLPEGSPLRPTVLNRAPEYRVQNAEWGATYGAYRLAEDGRMSWRAAQFMFPFWTMTPNILFSTRAIARAWVPMDDTHVMLFDITGGVDEGNPFFTTKLKNGEPMYEKIRRKPNGTGWYDRWLPVDGLQNDWGIDREAQRNMIHYTGIDNPSMQDQAITESMGPITDHSFEHLAPTDQMIAFVRRRLTQALRNFRDDSAPAPCAFSPETYFGARSGAFWADPVVEFSTAYRVELEKAQRWPANPDGSAVEREPEVAR,not soluble
8,MAQLAKTAVAALSKKLVAPAAVARRTLATEASPEDYGYYPDPLEHATGREKKMLLARLAGDDRYEPKVYYRAEASTKQKPNLVPSHYDFRIIGCMCEQDSGHVNFMTIRKGDPKRCECGHWFKGVDADPESI,not soluble
9,MHIAIIGAAGMVGRKLTQRLVKDGSLGGKPVEKFTLIDVFQPEAPAGFSGAVDARAADLSAPGEAEKLVEARPDVIFHLAAIVSGEAELDFDKGYRINLDGTRYLFDAIRIANGKDGYKPRVVFTSSIAVFGAPLPYPIPDEFHTTPLTSYGTQKAICELLLSDYSRRGFFDGIGIRLPTICIRPGKPNAAASGFFSNILREPLVGQEAVLPVPESIRHWHASPRSAVGFLIHGAMIDVEKVGPRRNLSMPGLSATVGEQIEALRKVAGEKAVALIRREPNEMIMRMCEGWAPGFEAKRARELGFTAESSFEEIIQVHIEDELGGSLK,soluble
10,MDTVNDSFSPGSSRPSPATLSREDCWSEEATFTLIQAWGNRYVDLSRGNLRQKHWQEVANAVNDRHYNTGRNVSAAKSQPYRTDVQCKNRIDTLKKKYKVEKARVSESNPGAYISPWPFFSALDDLLRESFPTSSNPDSTDNIPHQRLSLPMSINPVPVAPRSAIPRRPATSPAIIPHAGDDLLGFRGNLNAFAAAAAAAACPASEDDSEGSRSRSSGRSGSNKKRERKIEKKQGYKEVADAIERLGQIYERVEEKKRKEMVELEKQRMRFAKELECHRMQLFTEMQVRLHKLRRTSGSKGPTSSASAGET,soluble
11,MSLSELLDLSFLSEEEKDLILSVLQRDEEVRKADEKRIRRLKNELLEIKRKGAKRGSQHYSDRTCARCQESLGRLSPKTNTCRGCNHLVCRDCRIQESNGTWRCKVCAKEIEMKKATGDWFYDQKVNRFAYRTGSEIIRMSLRHKPAVSKREGHHHHHH,not soluble
12,MIIGYFDGLCEPKNPGGIATFGFVIYLDNRKIEGYGLAEKPFSINSTNNVAEYSGLICLMETMLRLGISSPIIKGDSQLVIKQMNGEYKVKAKRIIPLYEKAIELKKKLNATLIWVPREENKEADRLSRVAYELVRRGKLRDIGCIILT,soluble
13,MSGNGVKKVAEVAAKAGKAIDWEGMAKMLVSDEARKEFNTLRRTFEDVNHQLQTKFSQEPQPIDWEYYRKGIGSKVVDMYKEAYERTSCFVNPNVNAFCGTVICSEMHVLLCDLVNRSEDTKHEINAGIEIPKYVDTVTPQYKPKFDALLVELKEAEKESLKESERIEKELAELQEMKKNISTMTADEYFAKHPEVKQKFDDEIRNDNWGY,soluble
14,MGSDKIHHHHHHMKRVKEQIKYLALLAICLLSGCSDFLDSYNPSAVTDDFYNTKEGQQKLLTDINARYRNVFNTGELQYYGTDIYMAISEEPAERMFNGYDKTFNSTAPIVGDYWKVLYKIVQESNILLNRCTPDIAGSDYTSLTAQARFFRAMAYYYLVETFGPVPLLTEENTSVIQQAERTGEQAIYTFIITELNDIKDKLDMTTISAGKVTNAAVIHFLGKMYLTRAYKSFAETDDFSNAATTFDLLVENPASGYALQENYAALFDENNQANSEVIWAIQYGLDKNYRGDGNPQQAQFGFNIVALEPDLFIKNQNDYSSVSRKYWVNPKAHELYTDPEADTRYDATFKREYYINNPDNADYGKLGIYFPRWNDKSGMSNNAKRFYPFKQDDEYVWYPQSTALPVLETASDRMPMVRKFSDTKIQWGEGGSREDVIFRLGDTYLLCAEAYLGAGNKKLALERINSIRKRAAKDATAYEAMKLTDLDINVIMDERARELMGEHDRWFDLKRTQTLLTRVPAYNPFVVKYDNLNKNHLVRPIPQDERNKVDGLSQNEGY,not soluble
15,MGSDKIHHHHHHMIKALLTVSTILVSSHALATDKPADKPWHNEKPTLSTINAPTKVMPMVCKQTQALAYLKELQSGKKDIYSVKSNDHGGKGANDSGWLTWRVDDPTNLIPCPKGGAADTEVGMCWKELNDEPTVIGLVRVAPGTAAPHYHREMECYYGLSGQGLTWAQERMQPFGAGDYIEIPSKAIHYTPNTYDDQDLIYMYWFPLDGKFSTFKYQWPKDVGPGEQLMFDFVPYTNSKTVRSGNDGYGWDVIQKSKK,not soluble
16,MATTIPGSLVNKTKKFFMGMPAPTGYVPGVGRGATGFTTRSDIGPARDPTELPEAGPVGPSPQGASSSSAPPAKRARDDDGDGEDLNEANYDEFSGYSGSLFSKDPYDQEDEDADRIYNEVDDRLDERHKERREKKYKELVELFHKDRPKIQQGFQDLKRQLAEVTEDEWQAIPEVGDMRNKAKRNARAEKFTPVPDSIIAMNMNYGQMSHSIDSGNGLTTPFASGFMSTLGGGGGAAAAGAKSGIMTPGWKSDIPSSGTSTDLDLVKIGQARNKIMDMQLTQVSDSVTGQTVVDPKGYLTDMQSIIPQMGGDLQDIKKARMLLKSVRETNPRHPPAWVASAVLEEQAGKLQTARNFIMEGCEKIKNSEELWLHAIRLHPPELGRSIVANAVRSCPHSVRLWCKASDLEQDLKDKKKVLRKALEQIPSSVKLWKAAVELEDPEDARILLTRAVECCSSSTEMWLALARLETYENARKVLNKAREHIPTDRHIWLSAARLEETRGQKDMVDKIVAKAMSSLKVNQVEINRDQWLKDAVDAEMAKCPITCQAIIRNVIGLGVEDEDKRTTWLADAENFEKEEAFTCVRTVYAIALKEFSRKRSIWDAAIHFEREHGSLDEHEAILLKACETVPEVEDYWLMLAKLRFVNKRVGEARDTLMSAFEKHGHQSEKIWLAATKIEIETDQFDTARGLFGKARAKAPSARVWMKNAHFEWCLGNVEEAKRLCEECIQKYDDFHKIYLVLGQVLEQMNDVHGARLAYTQGIRKCPGVIPLWILLVRLEEKAGQIVKARVDLEKARLRNPKNDDLWLESVRFEQRVGCPEMAKERMSRALQECEGSGKLWAEAIWMEGPHGRRAKSIDALKKCEHNPHVLIAAARLFWSERKIKKAREWFVRAVNLDPDNGDAFANFLAFEQIHGKEEDRKSVFKKCVTSEPRYGDLWQSVSKDPINWRRTTEEILQLATQKIKVPT,not soluble
17,MGSDKIHHHHHHMKLLMIELHQEDCSNIAVSEKIKDAELNLVNVREDGDYTHIDAIFLGDMFKENVISTLRKEKAFNINLKMKSRSEIWVSYDILTTAAWRNFSSLGCTVVPPLRVANGVEKWFVYTPDEISQRDIKRQLEMDNATHISRIRELTLKSFLKVIFNMDFLSDFIDTMEALTDLQVKTIKQAYVNGYYDYPRRCTLGDLAKINGISKNAMAKRLKSVEKKIFECLFGYI,not soluble
18,MNTRIKPVRSFLFVPGNKESMLDKAAQAGADALILDLEDSVPSPEKTAARELVAKKIPELIAQNQRIWVRINRTAHIYDLDDILAVAPAGIEGIYISKPGGPEDVYMASCMIAEAEARANLPLGSIGLIPLLETARSMQLCYDIAQMPRVAGIVGATARNADMGRALKFVWTAEGRETEYLKSRVVMAARAAGKQAIGGLWQQIKDLDGLAKSSAFDRQLGMSGELVLHPMQVETINRTYTPTAEDVAYYQGMIEALDAAQAQGRASVMYEGEHIDIAHVKTAHEVIALAQSFGN,not soluble
19,MGSDKIHHHHHHMKVTIIGAAGQIPHFLIPMLQKQTDAELTLFARNATSRLLDYSKPTVRIVDGDASKSGDVKTAITDADVVFMDFDNPEAVKNVIKVMDQLGKKRLIVAGVLGVYDEVAGAFGKWNNMMIGSGYLPHKQAVTELEKSDLDYTYMRMTWLYDQDGNTNYETQKKGQPLIGAQVTRQAVSQYVIDMIKNPELGIRESNGVVEPNTNFAKPSFY,not soluble
